According to the Immune Epitope Database (IEDB):
One block for each sequence: values may come before it.

Assays:
HLA-A*02:01 = experiment: IEDB peptide-MHC binding, purified MHC/competitive/fluorescence; filed as Kd, often an IC50 or EC50 that approximates it; ≥ and ≤ were set here for values at or beyond the usual limits of such assays
HLA-A*02:03 = experiment: as above
HLA-A*02:12 = experiment: as above
HLA-A*02:16 = experiment: as above
HLA-A*02:19 = experiment: as above
HLA-A*03:01 [1] = experiment: as above
HLA-A*23:01 = experiment: as above
HLA-A*24:03 = experiment: as above
HLA-A*26:01 = experiment: as above
HLA-A*68:02 = experiment: as above
HLA-B*15:01 = experiment: as above
HLA-B*18:01 = experiment: as above
HLA-B*27:03 = experiment: as above
HLA-B*39:01 = experiment: as above
HLA-B*46:01 = experiment: as above
HLA-B*51:01 = experiment: as above
HLA-B*57:01 = experiment: as above
HLA-A*31:01 = experiment: as above
HLA-A*01:01 = experiment: as above; conditions: source organism: Shigella boydii CDC 3083-94
HLA-B*58:01 = experiment: as above
HLA-A*02:11 = experiment: as above
HLA-A*29:02 = experiment: as above
HLA-A*69:01 = experiment: as above
HLA-A*03:01 [2] = experiment: IEDB peptide-MHC binding, purified MHC/direct/fluorescence; filed as Kd, often an IC50 or EC50 that approximates it; ≥ and ≤ were set here for values at or beyond the usual limits of such assays
HLA-A*11:01 = experiment: as above
HLA-B*15:42 = experiment: IEDB peptide-MHC binding, purified MHC/competitive/fluorescence; filed as Kd, often an IC50 or EC50 that approximates it; ≥ and ≤ were set here for values at or beyond the usual limits of such assays; conditions: source organism: Rickettsia typhi str. Wilmington
HLA-B*45:06 = experiment: as above; conditions: source organism: Rickettsia typhi str. Wilmington
HLA-B*83:01 = experiment: as above; conditions: source organism: Rickettsia typhi str. Wilmington
HLA-B*15:17 = experiment: as above
[3] = source organism: Burkholderia pseudomallei K96243
[4] = source organism: Escherichia coli 101-1
[5] = source organism: Shigella boydii CDC 3083-94
[6] = source organism: Campylobacter jejuni subsp. jejuni NCTC 11168 = ATCC 700819
[7] = source organism: Rickettsia typhi
[8] = source organism: Rickettsia typhi str. Wilmington
[9] = source organism: Burkholderia mallei
[10] = source organism: Bacillus anthracis str. 'Ames Ancestor'
[11] = source organism: dengue virus type 4

Sequence: DELWRGLLA
- Kd (HLA-A*02:01; [3]): ≥ 20 µM
- Kd (HLA-A*02:03; [3]): ≥ 20 µM
- Kd (HLA-A*02:12; [3]): ≥ 20 µM
- Kd (HLA-A*02:16; [3]): ≥ 20 µM
- Kd (HLA-A*02:19; [3]): ≥ 20 µM
- Kd (HLA-A*03:01 [1]; [3]): ≥ 20 µM
- Kd (HLA-A*23:01; [3]): ≥ 20 µM
- Kd (HLA-A*24:03; [3]): ≥ 20 µM
- Kd (HLA-A*26:01; [3]): ≥ 20 µM
- Kd (HLA-A*68:02; [3]): ≥ 20 µM
- Kd (HLA-B*15:01; [3]): ≥ 20 µM
- Kd (HLA-B*18:01; [3]): 0.0813 µM
- Kd (HLA-B*27:03; [3]): ≥ 20 µM
- Kd (HLA-B*39:01; [3]): ≥ 20 µM
- Kd (HLA-B*46:01; [3]): ≥ 20 µM
- Kd (HLA-B*51:01; [3]): ≥ 20 µM
- Kd (HLA-B*57:01; [3]): ≥ 20 µM

- Kd (HLA-A*03:01 [1]; [4]): 4.5 µM
- Kd (HLA-A*31:01; [4]): 0.0033 µM
Sequence: GTKAWVMNR

Sequence: HSETVIHRY
- Kd (HLA-A*01:01): 0.0144 µM
- Kd (HLA-B*15:01; [5]): 3 µM
- Kd (HLA-B*58:01; [5]): ≥ 20 µM

Sequence: KGMKIQHFK
- Kd (HLA-A*02:01; [6]): ≥ 20 µM
- Kd (HLA-A*02:03; [6]): ≥ 20 µM
- Kd (HLA-A*02:11; [6]): ≥ 20 µM
- Kd (HLA-A*02:12; [6]): ≥ 20 µM
- Kd (HLA-A*02:16; [6]): ≥ 20 µM
- Kd (HLA-A*02:19; [6]): ≥ 20 µM
- Kd (HLA-A*03:01 [1]; [6]): 0.0679 µM
- Kd (HLA-A*23:01; [6]): ≥ 20 µM
- Kd (HLA-A*24:03; [6]): ≥ 20 µM
- Kd (HLA-A*26:01; [6]): ≥ 20 µM
- Kd (HLA-A*29:02; [6]): ≥ 20 µM
- Kd (HLA-A*68:02; [6]): ≥ 20 µM
- Kd (HLA-A*69:01; [6]): ≥ 20 µM
- Kd (HLA-B*15:01; [6]): ≥ 20 µM
- Kd (HLA-B*18:01; [6]): ≥ 20 µM
- Kd (HLA-B*27:03; [6]): ≥ 20 µM
- Kd (HLA-B*39:01; [6]): ≥ 20 µM
- Kd (HLA-B*46:01; [6]): ≥ 20 µM
- Kd (HLA-B*51:01; [6]): ≥ 20 µM
- Kd (HLA-B*57:01; [6]): ≥ 20 µM

- Kd (HLA-B*58:01; source organism: Escherichia coli O139:H28 str. E24377A): 0.879 µM
Sequence: LKASGRYQW

Sequence: LTIPTIMGR
- Kd (HLA-A*03:01 [2]; [7]): 0.93 µM
- Kd (HLA-A*11:01; [7]): 0.003 µM
- Kd (HLA-A*31:01; [8]): 0.00255 µM
- Kd (HLA-B*15:42): ≥ 5 µM
- Kd (HLA-B*45:06): ≥ 5 µM
- Kd (HLA-B*83:01): ≥ 5 µM

Sequence: LTQRRTTPR
- Kd (HLA-A*03:01 [2]; [9]): 1.86 µM
- Kd (HLA-A*11:01; [9]): 0.0526 µM
- Kd (HLA-A*31:01; source organism: Burkholderia mallei FMH): 0.0131 µM

Sequence: MTQNISNDK
- Kd (HLA-A*02:01; [10]): ≥ 20 µM
- Kd (HLA-A*02:03; [10]): ≥ 20 µM
- Kd (HLA-A*02:11; [10]): ≥ 20 µM
- Kd (HLA-A*02:12; [10]): ≥ 20 µM
- Kd (HLA-A*02:16; [10]): ≥ 20 µM
- Kd (HLA-A*02:19; [10]): ≥ 20 µM
- Kd (HLA-A*03:01 [1]; [10]): 6 µM
- Kd (HLA-A*24:03; [10]): ≥ 20 µM
- Kd (HLA-A*26:01; [10]): ≥ 20 µM
- Kd (HLA-A*29:02; [10]): ≥ 20 µM
- Kd (HLA-A*68:02; [10]): ≥ 20 µM
- Kd (HLA-A*69:01; [10]): ≥ 20 µM
- Kd (HLA-B*15:01; [10]): ≥ 20 µM
- Kd (HLA-B*15:17; [10]): ≥ 20 µM
- Kd (HLA-B*18:01; [10]): ≥ 20 µM
- Kd (HLA-B*27:03; [10]): ≥ 20 µM
- Kd (HLA-B*39:01; [10]): ≥ 20 µM
- Kd (HLA-B*46:01; [10]): ≥ 20 µM
- Kd (HLA-B*51:01; [10]): ≥ 20 µM
- Kd (HLA-B*57:01; [10]): ≥ 20 µM

Sequence: QLEVRSTEV
- Kd (HLA-A*02:01; [8]): ≥ 20 µM
- Kd (HLA-A*02:11; [8]): ≥ 20 µM
- Kd (HLA-A*02:12; [8]): 0.43 µM
- Kd (HLA-A*02:16; [8]): ≥ 20 µM
- Kd (HLA-A*03:01 [1]; [8]): ≥ 20 µM
- Kd (HLA-A*23:01; [8]): ≥ 20 µM
- Kd (HLA-A*24:03; [8]): ≥ 20 µM
- Kd (HLA-A*26:01; [8]): ≥ 20 µM
- Kd (HLA-A*29:02; [8]): ≥ 20 µM
- Kd (HLA-B*15:01; [8]): ≥ 20 µM
- Kd (HLA-B*15:17; [8]): ≥ 20 µM
- Kd (HLA-B*18:01; [8]): ≥ 20 µM
- Kd (HLA-B*27:03; [8]): ≥ 20 µM
- Kd (HLA-B*39:01; [8]): ≥ 20 µM
- Kd (HLA-B*46:01; [8]): ≥ 20 µM
- Kd (HLA-B*51:01; [8]): ≥ 20 µM
- Kd (HLA-B*57:01; [8]): ≥ 20 µM

Sequence: RNNDPTLPY
- Kd (HLA-A*02:01; [5]): ≥ 20 µM
- Kd (HLA-A*02:03; [5]): ≥ 20 µM
- Kd (HLA-A*02:12; [5]): ≥ 20 µM
- Kd (HLA-A*02:16; [5]): ≥ 20 µM
- Kd (HLA-A*02:19; [5]): ≥ 20 µM
- Kd (HLA-A*23:01; [5]): ≥ 20 µM
- Kd (HLA-A*24:03; [5]): ≥ 20 µM
- Kd (HLA-A*26:01; [5]): ≥ 20 µM
- Kd (HLA-A*68:02; [5]): ≥ 20 µM
- Kd (HLA-A*69:01; [5]): ≥ 20 µM
- Kd (HLA-B*15:17; [5]): ≥ 20 µM
- Kd (HLA-B*18:01; [5]): ≥ 20 µM
- Kd (HLA-B*27:03; [5]): ≥ 20 µM
- Kd (HLA-B*39:01; [5]): ≥ 20 µM
- Kd (HLA-B*46:01; [5]): ≥ 20 µM
- Kd (HLA-B*51:01; [5]): ≥ 20 µM
- Kd (HLA-B*57:01; [5]): ≥ 20 µM

Sequence: RSSKLVMRY
- Kd (HLA-B*58:01; source organism: Yersinia pestis Nepal516): 0.0183 µM

Sequence: VVTLIPLCR
- Kd (HLA-A*11:01; [11]): 0.454 µM
- Kd (HLA-A*31:01; [11]): 0.0301 µM
